Experimental data taken from PMC9024677.
Values belong to the substance of their own block, whether it stands above or below them.

What was measured:
[1] = target: bovine cardiac α-actin (bovine) (UniProt Q3ZC07); test: pyrene-actin polymerization assay; 5 μM actin with pyrene-labelled skeletal muscle actin (20:1) in G-buffer; polymerization started with 2 mM MgCl2 (and 0.05 M KCl); fluorescence increase followed over time
[2] = target: bovine cardiac α-actin (bovine) (UniProt Q3ZC07); test: other fluorescence titration; critical concentration of polymerization (monomer to filament): 0.1 to 10 μM c-actin with 5% pyrene-actin, 2 mM MgCl2 and 0.05 M KCl overnight; steady-state fluorescence against actin concentration
[3] = target: deoxyribonuclease I (DNase I) (bovine) (UniProt P00639)
deoxyribonuclease I (DNase I) (bovine), sequence (P00639 23-282): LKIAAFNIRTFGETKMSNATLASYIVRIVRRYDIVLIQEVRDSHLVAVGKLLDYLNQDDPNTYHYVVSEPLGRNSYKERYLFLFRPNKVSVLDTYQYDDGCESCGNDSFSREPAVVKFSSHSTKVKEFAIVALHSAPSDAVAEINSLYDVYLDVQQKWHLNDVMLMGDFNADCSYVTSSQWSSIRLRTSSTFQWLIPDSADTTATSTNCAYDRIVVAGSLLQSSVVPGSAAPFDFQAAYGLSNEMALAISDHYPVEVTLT

[4] = target: human cardiac α-actin mutant p.A295S (human); test: pyrene-actin polymerization assay; 5 μM actin with pyrene-labelled skeletal muscle actin (20:1) in G-buffer; polymerization started with 2 mM MgCl2 (and 0.05 M KCl); fluorescence increase followed over time
[5] = target: human cardiac α-actin mutant p.A295S (human); test: other fluorescence titration; critical concentration of polymerization (monomer to filament): 0.1 to 10 μM c-actin with 5% pyrene-actin, 2 mM MgCl2 and 0.05 M KCl overnight; steady-state fluorescence against actin concentration
[6] = target: human cardiac α-actin mutant p.E361G (human); test: pyrene-actin polymerization assay; 5 μM actin with pyrene-labelled skeletal muscle actin (20:1) in G-buffer; polymerization started with 2 mM MgCl2 (and 0.05 M KCl); fluorescence increase followed over time
[7] = target: human cardiac α-actin mutant p.E361G (human); test: other fluorescence titration; critical concentration of polymerization (monomer to filament): 0.1 to 10 μM c-actin with 5% pyrene-actin, 2 mM MgCl2 and 0.05 M KCl overnight; steady-state fluorescence against actin concentration
[8] = target: human cardiac α-actin mutant p.R312H (human); test: pyrene-actin polymerization assay; 5 μM actin with pyrene-labelled skeletal muscle actin (20:1) in G-buffer; polymerization started with 2 mM MgCl2 (and 0.05 M KCl); fluorescence increase followed over time
[9] = target: human cardiac α-actin mutant p.R312H (human); test: other fluorescence titration; critical concentration of polymerization (monomer to filament): 0.1 to 10 μM c-actin with 5% pyrene-actin, 2 mM MgCl2 and 0.05 M KCl overnight; steady-state fluorescence against actin concentration
[10] = target: human cardiac α-actin variant p.R312K (human); test: pyrene-actin polymerization assay; 5 μM actin with pyrene-labelled skeletal muscle actin (20:1) in G-buffer; polymerization started with 2 mM MgCl2 (and 0.05 M KCl); fluorescence increase followed over time
[11] = target: human cardiac α-actin variant p.R312K (human); test: other fluorescence titration; critical concentration of polymerization (monomer to filament): 0.1 to 10 μM c-actin with 5% pyrene-actin, 2 mM MgCl2 and 0.05 M KCl overnight; steady-state fluorescence against actin concentration
[12] = target: human wild type cardiac α-actin (recombinant) (human) (UniProt P68032); test: pyrene-actin polymerization assay; 5 μM actin with pyrene-labelled skeletal muscle actin (20:1) in G-buffer; polymerization started with 2 mM MgCl2 (and 0.05 M KCl); fluorescence increase followed over time
[13] = target: human wild type cardiac α-actin (recombinant) (human) (UniProt P68032); test: other fluorescence titration; critical concentration of polymerization (monomer to filament): 0.1 to 10 μM c-actin with 5% pyrene-actin, 2 mM MgCl2 and 0.05 M KCl overnight; steady-state fluorescence against actin concentration
[14] = target: bovine cardiac α-actin (bovine) (UniProt Q3ZC07)
[15] = target: human cardiac α-actin mutant p.A295S (human)
[16] = target: human cardiac α-actin mutant p.E361G (human)
[17] = target: human cardiac α-actin mutant p.R312H (human)
[18] = target: human wild type cardiac α-actin (recombinant) (human) (UniProt P68032)

Substance: human cardiac α-actin mutant p.A295S (natural protein)
- inhibition of DNase I activity (hyperchromicity assay), 3.2 μM DNase I pre-incubated with zero to 6.4 μM G-actin; inhibitory capacity against wt c-α-actin [3]: 33%
- half time of polymerization (t 1/2) [4]: 8.5 min
- critical concentration of polymerization (Cc) [5]: 0.4 µM

Substance: human cardiac α-actin mutant p.R312H (natural protein)
- half time of polymerization (t 1/2) [8]: 10.8 min
- critical concentration of polymerization (Cc) [9]: 0.7 µM

Substance: human cardiac α-actin variant p.R312K (natural protein)
- half time of polymerization (t 1/2) [10]: 3.08 min
- critical concentration of polymerization (Cc) [11]: 0.21 µM

Substance: human wild type cardiac α-actin (recombinant) (from UniProt P68032 1-377) (natural protein)
- inhibition of DNase I activity (hyperchromicity assay), 3.2 μM DNase I pre-incubated with zero to 6.4 μM G-actin; concentration for complete inhibition against skeletal muscle actin ([3]; scale: fold higher concentration than skeletal muscle actin): 3
- half time of polymerization (t 1/2) [12]: 2.5 min
- critical concentration of polymerization (Cc) [13]: 0.2 µM

Further lines, results first:

- half time of polymerization (t 1/2) [1]: 2.7 min
- critical concentration of polymerization (Cc) [2]: 0.21 µM
Substance: bovine cardiac α-actin (from UniProt Q3ZC07 1-377) (natural protein)

- half time of polymerization (t 1/2) [6]: 1.6 min
- critical concentration of polymerization (Cc) [7]: 0.2 µM
Substance: human cardiac α-actin mutant p.E361G (natural protein)

- apparent KM of the myosin-S1 ATPase stimulation by F-c-actin (double reciprocal plot), pCa 4.3, without cTm/cTn [14]: 0.081 µM
- apparent KM of the myosin-S1 ATPase stimulation by F-c-actin (double reciprocal plot), pCa 4.3, without cTm/cTn [15]: 0.966 µM
- apparent KM of the myosin-S1 ATPase stimulation by F-c-actin decorated with cTm/cTn (6:1:1), pCa 4.3 [15]: 3.31 µM
- apparent KM of the myosin-S1 ATPase stimulation by F-c-actin (double reciprocal plot), pCa 4.3, without cTm/cTn [16]: 0.075 µM
- apparent KM of the myosin-S1 ATPase stimulation by F-c-actin decorated with cTm/cTn (6:1:1), pCa 4.3 [16]: 0.173 µM
- apparent KM of the myosin-S1 ATPase stimulation by F-c-actin (double reciprocal plot), pCa 4.3, without cTm/cTn [17]: 0.096 µM
- apparent KM of the myosin-S1 ATPase stimulation by F-c-actin decorated with cTm/cTn (6:1:1), pCa 4.3 [17]: 0.0243 µM
- apparent KM of the myosin-S1 ATPase stimulation by F-c-actin (double reciprocal plot), pCa 4.3, without cTm/cTn [18]: 0.165 µM
- apparent KM of the myosin-S1 ATPase stimulation by F-c-actin decorated with cTm/cTn (6:1:1), pCa 4.3 [18]: 0.217 µM
Substance: rabbit skeletal muscle myosin subfragment-1 (domain or fragment)
